Data on 5 substances can be found in publication PMC3681697.

For test [1], the target named is N-terminal His-tagged recombinant nebulin encompassing modules 160–164 (human) (UniProt P20929). Description: ELISA. In general terms: ELISA stands for enzyme-linked immunosorbent assay.
In test [2] the target is desmin rod (human) (UniProt P17661). The test is described as follows: co-sedimentation.
Test [3] has as its target full-length wild-type desmin (human) (UniProt P17661). The test is described as follows: co-sedimentation.
Test [4] addresses headless desmin (human) (UniProt P17661). The test is described as follows: co-sedimentation.
Test [5] concerns the target mutant desmin E245D (human) (UniProt P17661). Description: co-sedimentation.
For test [6], the target named is tailless desmin (human) (UniProt P17661). The test is described as follows: co-sedimentation.
Test [7] deals with N-terminal His-tagged recombinant nebulin encompassing modules 160–164 (human) (UniProt P20929). The test is described as follows: ELISA. This is another data set of the same source.

Several values for one entry are separate records, joined by “and”; a condition that tells them apart may be missing. Equal values may be shown once. Read-outs that look alike come from different tables or passages of the source.

In the case of “mutant desmin S46Y (from UniProt P17661 1-470) (natural protein)”, in test [1], the Kd was found to be 19 nM.
Consider “N-terminal His-tagged recombinant nebulin encompassing modules 160–164 (from UniProt P20929 1-8525) (domain or fragment)”, for which the sedimentation value (percent in the pellet, equimolar mixture) worked out at 70% in test [2], 57% in test [4] and 29% in test [6]. For the same substance, the nebulin bound at later time points (percent of total protein) was 35% in test [3] and 20% in test [5].
“mutant desmin T453I (from UniProt P17661 1-470) (natural protein)”: the Kd in test [1] was found to be 11 nM.
With “mutant desmin E245D (from UniProt P17661 1-470) (natural protein)”, the Kd in test [1] came to 8 nM; in test [7], 2 nM.
Consider “full-length wild-type desmin (from UniProt P17661 1-470) (natural protein)”, for which the Kd in test [1] is 18 nM and 14 nM.

By Kd is commonly meant the concentration at which binding is half-saturated.
